Results published in article PMC11032491, “A conserved strategy to attack collagen: The activator domain in bacterial collagenases unwinds triple-helical collagen” (Proceedings of the National Academy of Sciences of the …, 2024).

Legend:
[1] = target: Acid-soluble type I atelocollagen from bovine hides (bovine) (UniProt P02453); assay: ELISA
[2] = target: Type I gelatin (heat-denatured acid-soluble type I atelocollagen from bovine hides) (bovine); assay: ELISA
[3] = target: Type I gelatin (heat-denatured acid-soluble type I atelocollagen from bovine hides); assay: indirect ELISA; settings: 37 °C; parent: est. 1.5 µM; read off a plot
[4] = target: Acid-soluble type I atelocollagen from bovine hides (bovine) (UniProt P02453); assay: ELISA; indirect ELISA; soluble collagen immobilised, ColQ1-CU G472V variants in solution; 25 °C to preserve the triple-helical fold (Fig. 4C)
[5] = target: V-domain of Scl2.3 (Streptococcus pyogenes); assay: SDS-PAGE (SDS-stable oligomer); 12% nonreducing SDS-PAGE of 10 µM V-(GXY)26 incubated with or without ColG-CU at 25 °C (Fig. 2C)
[6] = target: Type I gelatin (heat-denatured acid-soluble type I atelocollagen from bovine hides) (bovine); assay: ELISA; indirect ELISA; gelatin immobilised, ColQ1-CU G472V variants in solution; 37 °C (Fig. 4B)
[7] = target: type I gelatin (heat-denatured acid-soluble type I atelocollagen from bovine hides) (bovine) (UniProt P02453); assay: ELISA
Chain of type I gelatin (heat-denatured acid-soluble type I atelocollagen from bovine hides) (bovine) (P02453 23-1217, chain 1 of 2): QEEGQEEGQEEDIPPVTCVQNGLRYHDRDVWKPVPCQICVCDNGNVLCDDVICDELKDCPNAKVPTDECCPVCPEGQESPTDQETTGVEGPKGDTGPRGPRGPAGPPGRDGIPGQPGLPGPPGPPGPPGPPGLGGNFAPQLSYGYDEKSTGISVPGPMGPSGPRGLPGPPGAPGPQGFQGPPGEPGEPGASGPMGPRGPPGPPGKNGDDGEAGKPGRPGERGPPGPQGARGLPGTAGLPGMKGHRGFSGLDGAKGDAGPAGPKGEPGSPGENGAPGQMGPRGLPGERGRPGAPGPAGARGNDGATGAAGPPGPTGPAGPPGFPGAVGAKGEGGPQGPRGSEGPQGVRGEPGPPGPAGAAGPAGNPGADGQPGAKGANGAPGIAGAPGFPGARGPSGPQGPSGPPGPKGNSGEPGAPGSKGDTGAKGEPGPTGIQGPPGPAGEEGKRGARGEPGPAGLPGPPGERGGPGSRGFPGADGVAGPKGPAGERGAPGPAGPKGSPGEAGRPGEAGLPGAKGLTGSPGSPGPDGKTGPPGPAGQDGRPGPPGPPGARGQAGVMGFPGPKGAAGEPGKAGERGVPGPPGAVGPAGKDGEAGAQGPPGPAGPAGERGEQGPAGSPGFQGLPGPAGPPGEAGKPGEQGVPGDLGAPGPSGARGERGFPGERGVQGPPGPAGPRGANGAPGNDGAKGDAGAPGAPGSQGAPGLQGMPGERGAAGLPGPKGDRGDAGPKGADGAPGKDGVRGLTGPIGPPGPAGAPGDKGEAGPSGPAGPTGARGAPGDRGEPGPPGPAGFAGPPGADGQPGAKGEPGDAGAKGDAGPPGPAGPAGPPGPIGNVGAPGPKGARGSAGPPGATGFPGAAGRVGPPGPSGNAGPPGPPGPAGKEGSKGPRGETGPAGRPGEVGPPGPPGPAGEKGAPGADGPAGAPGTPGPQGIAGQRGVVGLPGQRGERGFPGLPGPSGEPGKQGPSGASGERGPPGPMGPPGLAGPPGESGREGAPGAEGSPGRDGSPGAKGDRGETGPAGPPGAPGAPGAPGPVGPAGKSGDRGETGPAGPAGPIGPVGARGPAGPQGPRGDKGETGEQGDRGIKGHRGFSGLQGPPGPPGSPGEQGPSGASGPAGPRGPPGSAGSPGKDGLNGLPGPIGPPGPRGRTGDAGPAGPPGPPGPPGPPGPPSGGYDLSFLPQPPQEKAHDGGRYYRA
Chain of type I gelatin (heat-denatured acid-soluble type I atelocollagen from bovine hides) (bovine) (P02465 80-1117, chain 2 of 2, further chain): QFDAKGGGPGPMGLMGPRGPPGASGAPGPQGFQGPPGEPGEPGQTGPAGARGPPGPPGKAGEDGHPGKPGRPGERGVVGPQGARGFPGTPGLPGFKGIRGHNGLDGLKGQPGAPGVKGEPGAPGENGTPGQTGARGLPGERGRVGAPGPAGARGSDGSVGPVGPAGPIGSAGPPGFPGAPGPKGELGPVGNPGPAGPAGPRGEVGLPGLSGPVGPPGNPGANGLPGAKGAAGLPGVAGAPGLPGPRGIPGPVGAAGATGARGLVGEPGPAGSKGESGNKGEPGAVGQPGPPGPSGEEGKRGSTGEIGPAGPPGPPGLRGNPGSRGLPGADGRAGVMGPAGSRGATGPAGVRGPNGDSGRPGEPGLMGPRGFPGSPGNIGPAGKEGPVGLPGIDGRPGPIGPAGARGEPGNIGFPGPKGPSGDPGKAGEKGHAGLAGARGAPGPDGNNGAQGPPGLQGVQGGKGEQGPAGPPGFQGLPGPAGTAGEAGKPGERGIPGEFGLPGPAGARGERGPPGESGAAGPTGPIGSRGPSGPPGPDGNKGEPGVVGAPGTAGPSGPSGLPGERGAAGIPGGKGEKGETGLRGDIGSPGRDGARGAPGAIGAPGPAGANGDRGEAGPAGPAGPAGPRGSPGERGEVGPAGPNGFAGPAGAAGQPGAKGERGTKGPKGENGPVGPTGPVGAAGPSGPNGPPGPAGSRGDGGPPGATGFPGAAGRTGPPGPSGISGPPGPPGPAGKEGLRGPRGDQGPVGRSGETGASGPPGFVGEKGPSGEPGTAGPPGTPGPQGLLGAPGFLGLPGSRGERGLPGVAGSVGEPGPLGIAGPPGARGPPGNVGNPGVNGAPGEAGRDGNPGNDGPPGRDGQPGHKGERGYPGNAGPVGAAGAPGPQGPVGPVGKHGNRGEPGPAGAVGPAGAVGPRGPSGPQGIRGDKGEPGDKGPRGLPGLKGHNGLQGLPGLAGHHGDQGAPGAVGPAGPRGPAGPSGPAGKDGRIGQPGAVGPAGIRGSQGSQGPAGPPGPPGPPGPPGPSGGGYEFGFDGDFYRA

[8] = target: V-(GXY)26 (Streptococcus pyogenes); assay: MST; NanoTemper Monolith NT.115, Protein Labeling Kit RED-NHS; 50 mM HEPES pH 7.5, 150 mM NaCl, 10 mM CaCl2, 10 µM ZnCl2, 0.05% Tween-20, 3 mM NaN3; with 1 mM ß-mercaptoethanol (reducing) (Fig. 5F)
[9] = target: V-(GXY)26 (Streptococcus pyogenes); assay: MST; NanoTemper Monolith NT.115, Protein Labeling Kit RED-NHS; 50 mM HEPES pH 7.5, 150 mM NaCl, 10 mM CaCl2, 10 µM ZnCl2, 0.05% Tween-20, 3 mM NaN3; without ß-mercaptoethanol (nonreducing) (Fig. 5F)
[10] = target: Acid-soluble type I atelocollagen from bovine hides (bovine, UniProt P02453 162-1217; P02465 80-1117); assay: ELISA; settings: both partners purified
Chain of Acid-soluble type I atelocollagen from bovine hides (P02453 162-1217, chain 1 of 2): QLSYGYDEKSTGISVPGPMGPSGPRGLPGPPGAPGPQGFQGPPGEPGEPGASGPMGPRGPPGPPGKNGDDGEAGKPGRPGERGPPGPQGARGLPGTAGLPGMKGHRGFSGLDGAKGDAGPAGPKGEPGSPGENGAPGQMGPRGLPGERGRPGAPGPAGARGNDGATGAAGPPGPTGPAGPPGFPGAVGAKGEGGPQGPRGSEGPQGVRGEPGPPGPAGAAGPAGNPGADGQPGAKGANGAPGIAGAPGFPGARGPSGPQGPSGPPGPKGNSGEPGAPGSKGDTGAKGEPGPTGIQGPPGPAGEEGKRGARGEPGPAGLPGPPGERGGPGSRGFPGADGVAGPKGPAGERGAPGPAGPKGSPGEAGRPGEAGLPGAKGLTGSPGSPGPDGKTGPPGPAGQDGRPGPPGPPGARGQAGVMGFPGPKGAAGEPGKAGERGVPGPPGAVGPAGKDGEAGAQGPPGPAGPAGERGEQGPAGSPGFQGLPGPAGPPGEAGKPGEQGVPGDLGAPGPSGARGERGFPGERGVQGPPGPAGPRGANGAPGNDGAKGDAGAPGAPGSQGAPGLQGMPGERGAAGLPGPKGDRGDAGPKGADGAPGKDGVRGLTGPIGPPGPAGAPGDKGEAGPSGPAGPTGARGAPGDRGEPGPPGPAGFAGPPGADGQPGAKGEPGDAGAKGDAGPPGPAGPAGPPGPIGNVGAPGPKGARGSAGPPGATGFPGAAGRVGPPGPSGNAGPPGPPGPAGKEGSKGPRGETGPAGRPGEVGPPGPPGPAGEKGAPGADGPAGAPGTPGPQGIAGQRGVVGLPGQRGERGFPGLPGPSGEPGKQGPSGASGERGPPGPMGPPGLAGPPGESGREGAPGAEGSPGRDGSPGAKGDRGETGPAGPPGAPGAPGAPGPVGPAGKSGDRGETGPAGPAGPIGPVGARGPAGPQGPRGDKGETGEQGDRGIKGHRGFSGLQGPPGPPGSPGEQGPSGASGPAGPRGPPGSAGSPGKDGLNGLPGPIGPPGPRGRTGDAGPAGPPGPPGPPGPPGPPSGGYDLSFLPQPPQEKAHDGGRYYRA
Chain of Acid-soluble type I atelocollagen from bovine hides (P02465 80-1117, chain 2 of 2): as the sequence (P02465 80-1117, chain 2 of 2, further chain) above

[11] = target: T1, soluble type I collagen (acid-soluble type I atelocollagen from bovine hides) (bovine, UniProt P02453 162-1217; P02465 80-1117); assay: ELISA; settings: both partners purified
T1 construct: also called soluble collagen; tropocollagen
T1 sequence (P02453 162-1217, chain 1 of 2): as the sequence (P02453 162-1217, chain 1 of 2) above
T1 sequence (P02465 80-1117, chain 2 of 2): as the sequence (P02465 80-1117, chain 2 of 2, further chain) above

Chain of Acid-soluble type I atelocollagen from bovine hides (bovine) (P02453 162-1217, chain 1 of 2): as the sequence (P02453 162-1217, chain 1 of 2) above
Chain of Acid-soluble type I atelocollagen from bovine hides (bovine) (P02465 80-1117, chain 2 of 2, further chain): as the sequence (P02465 80-1117, chain 2 of 2, further chain) above

ColG-CU E524A (Y119-G790) (domain or fragment)
Kd [1]: 0.37 µM
Kd [2]: 0.08 µM

ColQ1-CU G472V F123A
Kd [3]: 1.5 µM

ColG-CBD2 (N1004-K1118) (from UniProt Q9X721 1004-1118) (domain or fragment)
Kd [2]: 253 µM

ColQ1-CU G472V R169A (domain or fragment)
fold increase in affinity against ColQ1-CU G472V [4]: 9 fold

V-domain of Scl2.3 (domain or fragment)
stoichiometry N [5]: 3

ColG-FL E524A (Y119-K1118) (from UniProt Q9X721 119-1118) (enzyme)
Kd [1]: 0.024 µM
Kd [2]: 0.031 µM

ColG-PD E524A (D398-G790) (domain or fragment)
Kd [1]: 497 µM
Kd [2]: 243 µM

ColQ1-CU G472V (domain or fragment)
Kd [6]: 1.6 µM
Kd [4]: 1.6 µM

ColQ1-CU G472V Y270A (domain or fragment)
fold increase in affinity against ColQ1-CU G472V [4]: 8 fold

ColQ1-CU G472V R169A
Kd [3]: 2.7 µM

ColQ1-CU G472V F176A (domain or fragment)
fold increase in affinity against ColQ1-CU G472V [4]: 20 fold

ColQ1-CU G472V N226A (domain or fragment)
Kd [6]: > 150 µM
Kd [4]: > 150 µM

ColQ1-CU G472V Y173A (domain or fragment)
fold drop in binding affinity against ColQ1-CU G472V [6]: 15 fold

ColG-PKD (I799-N880) (from UniProt Q9X721 799-880) (domain or fragment)
Kd [7]: > 1000 µM

ColQ1-CU G472V F176A
Kd [3]: 1.1 µM

ColQ1-CU G472V E166A
Kd [3]: 4.8 µM

ColG-AD (Y119-S392) (from UniProt Q9X721 119-392) (domain or fragment)
Kd [2]: 0.11 µM

ColG-CU CL4-G494V, noncrosslinked (reduced) (domain or fragment)
Kd [8]: 2.9 µM

ColG-CU CL4-G494V, crosslinked (domain or fragment)
Kd [9]: 36 µM

B1: ColG-CBD2 (N1004-K1118) (domain or fragment)
chain: NEKLKEKENNDSSDKATVIPNFNTTMQGSLLGDDSRDYYSFEVKEEGEVNIELDKKDEFGVTWTLHPESNINDRITYGQVDGNKVSNKVKLRPGKYYLLVYKYSGSGNYELRVNK
modifications: fluorescently labeled in the fibrillar collagen assay (dye not stated)
notes: source: E. coli Nico21 (DE3), purified
Kd [10]: 14 ± 1 µM

B2: ColG-AD (Y119-S392) (domain or fragment)
chain: YDFEYLNGLSYTELTNLIKNIKWNQINGLFNYSTGSQKFFGDKNRVQAIINALQESGRTYTANDMKGIETFTEVLRAGFYLGYYNDGLSYLNDRNFQDKCIPAMIAIQKNPNFKLGTAVQDEVITSLGKLIGNASANAEVVNNCVPVLKQFRENLNQYAPDYVKGTAVNELIKGIEFDFSGAAYEKDVKTMPWYGKIDPFINELKALGLYGNITSATEWASDVGIYYLSKFGLYSTNRNDIVQSLEKAVDMYKYGKIAFVAMERITWDYDGIGS
modifications: fluorescently labeled in the fibrillar collagen assay (dye not stated)
notes: as for B1
Kd [10]: 0.072 ± 0.009 µM

B3: ColG-PKD (I799-N880) (domain or fragment)
chain: IAKVTGPSTGAVGRNIEFSGKDSKDEDGKIVSYDWDFGDGATSRGKNSVHAYKKAGTYNVTLKVTDDKGATATESFTIEIKN
notes: as for B1
Kd [11]: > 1000 µM
